Biological target: T1, human recombinant CD117 (c-Kit) from Sino Biological (Catalog No. 11996-H08H) (human, UniProt P10721 26-524)
T1 construct: also called soluble antigen
Assay: BLI Octet, IgG on anti-human Fc sensor, soluble CD117, 1:1 fit
Procedure: IgG antibodies were immobilized on biosensors using suitable capture surfaces and binding of soluble antigen to immobilized antibodies was monitored by BLI (Octet). The resulting sensorgrams were analyzed using the supplied software (Fortebio). As antigen human recombinant CD117 (c-Kit) from Sino Biological was used (Catalog No. 11996-H08H, Lot #LC14SE0812). As a pre-experiment a series of experiments was performed to optimize assay parameters. The following parameters were selected:
(§1) In the main experiment kinetic assays were performed by first capturing IgG using anti-human Fc biosensors. The mAb capture biosensors were then submerged in wells containing different concentrations of antigen (association stage) followed by a dissociation step in running buffer. To allow for double reference correction, IgG-captured sensors were dipped into wells containing only buffer and blank sensors were also dipped into wells containing the antigen. This referencing provided a means of compensating for both the natural dissociation of the capture IgG and non-specific binding of the antigen to the sensor surface. Steps were performed at 25° C. at a constant shaking of 1000 rpm. New sensors were used for each sample. Dissociation rate constants (Kd) were calculated using the ForteBio Data Analysis software. All consumables used were those recommended by ForteBio.
(§2) All samples were diluted in freshly prepared running buffer. Antibody variants were immobilized onto the surface of a series of biosensors using the capture methods described. Antigen was passed over the surface to generate a binding response. Binding data for the IgG:antigen interactions were collected at 25° C. on the biosensors. A dilution series of the antigen was used in the association step, in order to fit results globally and get the best values for ka, kd, and KD. The response data for the binding of antigen to the surface immobilized IgG were fitted to a 1:1 binding model. HC0 LC0 refers to murine SR-1.

T1 sequence (P10721 26-524 limits assumed): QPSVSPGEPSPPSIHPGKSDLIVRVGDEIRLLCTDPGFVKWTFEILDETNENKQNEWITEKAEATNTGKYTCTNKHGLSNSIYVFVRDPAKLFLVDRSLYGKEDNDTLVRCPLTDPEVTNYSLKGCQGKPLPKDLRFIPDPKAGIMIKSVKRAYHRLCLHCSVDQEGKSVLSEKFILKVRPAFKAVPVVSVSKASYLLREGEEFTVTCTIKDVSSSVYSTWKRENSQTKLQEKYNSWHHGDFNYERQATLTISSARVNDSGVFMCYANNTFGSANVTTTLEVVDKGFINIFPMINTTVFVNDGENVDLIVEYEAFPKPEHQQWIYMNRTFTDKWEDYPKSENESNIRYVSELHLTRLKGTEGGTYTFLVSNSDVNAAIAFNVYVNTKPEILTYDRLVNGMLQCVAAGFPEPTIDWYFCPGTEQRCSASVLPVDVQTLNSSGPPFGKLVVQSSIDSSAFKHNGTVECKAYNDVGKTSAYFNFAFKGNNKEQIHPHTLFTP

Row | Binder | Kd | koff | kon
1 | Dom (antibody, V domains shown, IgG; also called VH3/VL1; HC3 LC1) VH: QVQLVQSGAEVRKPGASVKLSCKASGYTFTSYNMHWVRQAPGQGLEWMGVIYSGNGDTSYNQKFKGRVTLTRDTSTSTVYMELSSLRSEDTAVYYCARERDTRFGNWGQGTLVTVSA VL: EIVLTQSPSSLSASVGDRVTITCRASESVDIYGNSFMHWYQQKPGKAPKLLIYLASNLESGVPSRFSGSGSGTDFTLTISSLQPEDFATYYCQQNNEDPYTFGQGTKLEIK | 1.96 nM | 0.000971 s⁻¹ | 495000 M⁻¹ s⁻¹
2 | HC2 LC3 (antibody, V domains shown, IgG; also called VH2/VL3) VH: QVQLVESGAEVKKPGASVKLSCKASGYTFTSYNMHWVRQAPGQRLEWMGVIYSGNGDTSYNQKFKGRVTITVDKSASTAYMELSSLRSEDTAVYYCARERDTRFGNWGQGTLVTVSA VL: DIVMTQSPSTLSASVGDRVTITCRASESVDIYGSSFMHWYQQKPGQPPKLLIYLASNLESGVPSRFSGSGSGTEFTLTISSLEADDVATYYCQQNNEDPYTFGGGTKLEIK | 8.03 nM | 0.00458 s⁻¹ | 571000 M⁻¹ s⁻¹
3 | HC3 LC3 (antibody, V domains shown, IgG; also called VH3/VL3) VH: QVQLVQSGAEVRKPGASVKLSCKASGYTFTSYNMHWVRQAPGQGLEWMGVIYSGNGDTSYNQKFKGRVTLTRDTSTSTVYMELSSLRSEDTAVYYCARERDTRFGNWGQGTLVTVSA VL: DIVMTQSPSTLSASVGDRVTITCRASESVDIYGSSFMHWYQQKPGQPPKLLIYLASNLESGVPSRFSGSGSGTEFTLTISSLEADDVATYYCQQNNEDPYTFGGGTKLEIK | 3.28 nM | 0.00216 s⁻¹ | 658000 M⁻¹ s⁻¹
4 | HC3 LC2 (antibody, V domains shown, IgG; also called VH3/VL2) VH: QVQLVQSGAEVRKPGASVKLSCKASGYTFTSYNMHWVRQAPGQGLEWMGVIYSGNGDTSYNQKFKGRVTLTRDTSTSTVYMELSSLRSEDTAVYYCARERDTRFGNWGQGTLVTVSA VL: DIVMTQSPSTLSASVGDRVTITCRASESVDIYGNSFMHWYQQKPGKAPKLLIYLASNLESGVPSRFSGSGSGTEFTLTISSLQPDDFATYYCQQNNEDPYTFGQGTKLEIK | 3.09 nM | 0.00178 s⁻¹ | 577000 M⁻¹ s⁻¹
5 | HC3 LC5 (antibody, V domains shown, IgG; also called VH3/VL5) VH: QVQLVQSGAEVRKPGASVKLSCKASGYTFTSYNMHWVRQAPGQGLEWMGVIYSGNGDTSYNQKFKGRVTLTRDTSTSTVYMELSSLRSEDTAVYYCARERDTRFGNWGQGTLVTVSA VL: DIQMTQSPSSLSASVGDRVTITCRASESVDIYGNAFMHWYQQKPGKAPKLLIYLASNLESGVPSRFSGSGSGTDFTLTISSLQPEDFATYYCQQANEEPYTFGGGTKLEIK | 26.2 nM | 0.0187 s⁻¹ | 715000 M⁻¹ s⁻¹
6 | HC2 LC2 (antibody, V domains shown, IgG; also called VH2/VL2) VH: QVQLVESGAEVKKPGASVKLSCKASGYTFTSYNMHWVRQAPGQRLEWMGVIYSGNGDTSYNQKFKGRVTITVDKSASTAYMELSSLRSEDTAVYYCARERDTRFGNWGQGTLVTVSA VL: DIVMTQSPSTLSASVGDRVTITCRASESVDIYGNSFMHWYQQKPGKAPKLLIYLASNLESGVPSRFSGSGSGTEFTLTISSLQPDDFATYYCQQNNEDPYTFGQGTKLEIK | 10.8 nM | 0.00483 s⁻¹ | 449000 M⁻¹ s⁻¹
7 | HC5 LC2 (antibody, V domains shown, IgG; also called VH5/VL2) VH: EVQLVQSGAEVKKPGESLKISCKGSGYTFTSYNMHWVRQMPGKGLEWMGVIYSGNADTSYNQKFKGQVTISADKSISTAYLQWSSLKASDTAMYYCARERDTRFGNWGQGTLVTVSA VL: DIVMTQSPSTLSASVGDRVTITCRASESVDIYGNSFMHWYQQKPGKAPKLLIYLASNLESGVPSRFSGSGSGTEFTLTISSLQPDDFATYYCQQNNEDPYTFGQGTKLEIK | 3.61 nM | 0.0017 s⁻¹ | 472000 M⁻¹ s⁻¹
8 | HC2 LC5 (antibody, V domains shown, IgG; also called VH2/VL5) VH: QVQLVESGAEVKKPGASVKLSCKASGYTFTSYNMHWVRQAPGQRLEWMGVIYSGNGDTSYNQKFKGRVTITVDKSASTAYMELSSLRSEDTAVYYCARERDTRFGNWGQGTLVTVSA VL: DIQMTQSPSSLSASVGDRVTITCRASESVDIYGNAFMHWYQQKPGKAPKLLIYLASNLESGVPSRFSGSGSGTDFTLTISSLQPEDFATYYCQQANEEPYTFGGGTKLEIK | 33.8 nM | 0.0214 s⁻¹ | 632000 M⁻¹ s⁻¹
9 | Zumstein (antibody, V domains shown, IgG; also called VH1/VL2; HC1 LC2) VH: QVQLVQSGAEVKKPGASVKVSCKASGYTFTSYNMHWVRQAPGQGLEWMGVIYSGNGDTSYNQKFKGRVTMTTDTSTSTAYMELRSLTSDDTAVYYCARERDTRFGNWGQGTLVTVSA VL: DIVMTQSPSTLSASVGDRVTITCRASESVDIYGNSFMHWYQQKPGKAPKLLIYLASNLESGVPSRFSGSGSGTEFTLTISSLQPDDFATYYCQQNNEDPYTFGQGTKLEIK | 1.16 nM | 0.000668 s⁻¹ | 576000 M⁻¹ s⁻¹
10 | HC5 LC5 (antibody, V domains shown, IgG; also called VH5/VL5) VH: EVQLVQSGAEVKKPGESLKISCKGSGYTFTSYNMHWVRQMPGKGLEWMGVIYSGNADTSYNQKFKGQVTISADKSISTAYLQWSSLKASDTAMYYCARERDTRFGNWGQGTLVTVSA VL: DIQMTQSPSSLSASVGDRVTITCRASESVDIYGNAFMHWYQQKPGKAPKLLIYLASNLESGVPSRFSGSGSGTDFTLTISSLQPEDFATYYCQQANEEPYTFGGGTKLEIK | 29.4 nM | 0.0184 s⁻¹ | 626000 M⁻¹ s⁻¹
11 | HC2 LC1 (antibody, V domains shown, IgG; also called VH2/VL1) VH: QVQLVESGAEVKKPGASVKLSCKASGYTFTSYNMHWVRQAPGQRLEWMGVIYSGNGDTSYNQKFKGRVTITVDKSASTAYMELSSLRSEDTAVYYCARERDTRFGNWGQGTLVTVSA VL: EIVLTQSPSSLSASVGDRVTITCRASESVDIYGNSFMHWYQQKPGKAPKLLIYLASNLESGVPSRFSGSGSGTDFTLTISSLQPEDFATYYCQQNNEDPYTFGQGTKLEIK | 5.16 nM | 0.00206 s⁻¹ | 399000 M⁻¹ s⁻¹
12 | HC1 LC5 (antibody, V domains shown, IgG; also called VH1/VL5) VH: QVQLVQSGAEVKKPGASVKVSCKASGYTFTSYNMHWVRQAPGQGLEWMGVIYSGNGDTSYNQKFKGRVTMTTDTSTSTAYMELRSLTSDDTAVYYCARERDTRFGNWGQGTLVTVSA VL: DIQMTQSPSSLSASVGDRVTITCRASESVDIYGNAFMHWYQQKPGKAPKLLIYLASNLESGVPSRFSGSGSGTDFTLTISSLQPEDFATYYCQQANEEPYTFGGGTKLEIK | 8.79 nM | 0.00552 s⁻¹ | 628000 M⁻¹ s⁻¹
13 | Signalkuppe (antibody, V domains shown, IgG; also called VH1/VL3; HC1 LC3) VH: QVQLVQSGAEVKKPGASVKVSCKASGYTFTSYNMHWVRQAPGQGLEWMGVIYSGNGDTSYNQKFKGRVTMTTDTSTSTAYMELRSLTSDDTAVYYCARERDTRFGNWGQGTLVTVSA VL: DIVMTQSPSTLSASVGDRVTITCRASESVDIYGSSFMHWYQQKPGQPPKLLIYLASNLESGVPSRFSGSGSGTEFTLTISSLEADDVATYYCQQNNEDPYTFGGGTKLEIK | 1.09 nM | 0.000727 s⁻¹ | 670000 M⁻¹ s⁻¹
14 | HC5 LC3 (antibody, V domains shown, IgG; also called VH5/VL3) VH: EVQLVQSGAEVKKPGESLKISCKGSGYTFTSYNMHWVRQMPGKGLEWMGVIYSGNADTSYNQKFKGQVTISADKSISTAYLQWSSLKASDTAMYYCARERDTRFGNWGQGTLVTVSA VL: DIVMTQSPSTLSASVGDRVTITCRASESVDIYGSSFMHWYQQKPGQPPKLLIYLASNLESGVPSRFSGSGSGTEFTLTISSLEADDVATYYCQQNNEDPYTFGGGTKLEIK | 3.67 nM | 0.00216 s⁻¹ | 589000 M⁻¹ s⁻¹
15 | Liskamm (antibody, V domains shown, IgG; also called VH5/VL1; HC5 LC1) VH: EVQLVQSGAEVKKPGESLKISCKGSGYTFTSYNMHWVRQMPGKGLEWMGVIYSGNADTSYNQKFKGQVTISADKSISTAYLQWSSLKASDTAMYYCARERDTRFGNWGQGTLVTVSA VL: EIVLTQSPSSLSASVGDRVTITCRASESVDIYGNSFMHWYQQKPGKAPKLLIYLASNLESGVPSRFSGSGSGTDFTLTISSLQPEDFATYYCQQNNEDPYTFGQGTKLEIK | 1.92 nM | 0.000961 s⁻¹ | 500000 M⁻¹ s⁻¹

Biological target: T1, human recombinant CD117 (c-Kit) from …
Assay: BLI Octet, set-up as in Example 2
Procedure: as §1, §2

Row | Binder | Kd
16 | Aletschhorn (antibody, V domains shown, IgG; also called VH1/VL1.14) VH: QVQLVQSGAEVKKPGASVKVSCKASGYTFTSYNMHWVRQAPGQGLEWMGVIYSGNGDTSYNQKFKGRVTMTTDTSTSTAYMELRSLTSDDTAVYYCARERDTRFGNWGQGTLVTVSA VL: EIVLTQSPSSLSASVGDRVTITCRASESVDIYGNSFMHWYQQKPGKAPKLLIYLASNLESGVPSRFSGSGSGTDFTLTISSLQPEDFATYYCQQNNEPPYTFGQGTKLEIKR | 1.4 nM
17 | Jungfrau (antibody, V domains shown, IgG; also called VH1.2/VL1) VH: QVQLVQSGAEVKKPGASVKVSCKASGYTFTSYNMHWVRQAPGQGLEWMGVIYSGSGDTSYNQKFKGRVTMTTDTSTSTAYMELRSLTSDDTAVYYCARERDTRFGNWGQGTLVTVSA VL: EIVLTQSPSSLSASVGDRVTITCRASESVDIYGNSFMHWYQQKPGKAPKLLIYLASNLESGVPSRFSGSGSGTDFTLTISSLQPEDFATYYCQQNNEDPYTFGQGTKLEIK | 1.3 nM
